Test results published in doi:10.1101/2025.06.16.659985, “Dynamic assembly of malate dehydrogenase-citrate synthase multienzyme complex in the mitochondria” (bioRxiv, 2025).

Columns and labels:
recombinant yeast CIT1 [1] = biological target: T1, recombinant yeast CIT1 (yeast (Saccharomyces cerevisiae), UniProt P00890 38-479); assay: MST; labeled MDH1 as target, CIT1 titrated (two-fold dilutions of 80 μM, 16 concentrations), Monolith NT.115, room temperature; buffer pH 7.2; conditions: both partners purified
T1 construct: citrate synthase CIT1, mitochondrial, yeast (Saccharomyces cerevisiae); also called recombinant CIT1; source: recombinant; produced according to the Supplementary Methods
T1 sequence (looked up): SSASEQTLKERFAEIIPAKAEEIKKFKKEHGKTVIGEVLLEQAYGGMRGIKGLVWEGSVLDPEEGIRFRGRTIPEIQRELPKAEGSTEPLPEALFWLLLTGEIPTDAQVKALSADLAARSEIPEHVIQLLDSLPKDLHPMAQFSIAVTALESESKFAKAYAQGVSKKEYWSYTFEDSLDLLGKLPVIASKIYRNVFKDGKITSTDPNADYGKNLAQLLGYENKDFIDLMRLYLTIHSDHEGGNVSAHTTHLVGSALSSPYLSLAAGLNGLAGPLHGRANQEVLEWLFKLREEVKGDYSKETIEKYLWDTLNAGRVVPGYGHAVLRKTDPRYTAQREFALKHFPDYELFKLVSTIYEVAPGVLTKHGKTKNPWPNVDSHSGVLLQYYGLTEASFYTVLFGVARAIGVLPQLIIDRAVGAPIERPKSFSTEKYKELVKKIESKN

recombinant yeast CIT1 [2] = biological target: T1, recombinant yeast CIT1; assay: MST; labeled MDH1 as target, CIT1 titrated (two-fold dilutions of 80 μM, 16 concentrations), Monolith NT.115, room temperature; buffer pH 6.0; conditions: both partners purified
recombinant yeast CIT1 [3] = biological target: T1, recombinant yeast CIT1; assay: MST; labeled MDH1 as target, CIT1 titrated (two-fold dilutions of 80 μM, 16 concentrations), Monolith NT.115, room temperature; buffer pH 6.4; conditions: both partners purified
[4] = biological target: T2, recombinant yeast MDH1, fluorescently labeled (yeast (Saccharomyces cerevisiae), UniProt P17505 18-334, labeled with Protein Labeling Kit RED-NHS 2nd Generation (NanoTemper)); assay: MST; control (no metabolite)
T2 chain: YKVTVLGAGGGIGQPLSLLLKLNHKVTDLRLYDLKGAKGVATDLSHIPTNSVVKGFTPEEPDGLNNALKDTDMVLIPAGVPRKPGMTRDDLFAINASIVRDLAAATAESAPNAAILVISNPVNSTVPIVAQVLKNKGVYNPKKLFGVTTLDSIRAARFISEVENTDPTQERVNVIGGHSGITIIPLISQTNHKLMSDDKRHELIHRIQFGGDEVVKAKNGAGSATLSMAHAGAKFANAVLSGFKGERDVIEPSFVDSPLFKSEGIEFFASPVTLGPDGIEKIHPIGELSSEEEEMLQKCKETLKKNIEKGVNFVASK

[5] = biological target: T2, recombinant yeast MDH1, fluorescently …; assay: MST; pH 6.8
[6] = biological target: T2, recombinant yeast MDH1, fluorescently …; assay: MST; 10 mM fumarate
[7] = biological target: T2, recombinant yeast MDH1, fluorescently …; assay: MST; 10 mM malate

B1: recombinant yeast MDH1, fluorescently labeled (enzyme, yeast (Saccharomyces cerevisiae), UniProt P17505 18-334, looked up)
chain: T2 chain
modifications: labeled with Protein Labeling Kit RED-NHS 2nd Generation (NanoTemper)
notes: malate dehydrogenase MDH1, mitochondrial, yeast (Saccharomyces cerevisiae); also called recombinant MDH1; labeled MDH1; source: recombinant; produced according to the Supplementary Methods
With B1 the Kd (recombinant yeast CIT1 [1]) was 3480 nM, the Kd (recombinant yeast CIT1 [2]) was 33 nM and the Kd (recombinant yeast CIT1 [3]) was 223 nM.

B2: recombinant yeast CIT1 (enzyme)
chain: T1 sequence (looked up)
B2 showed a Kd [4] of 6070 nM, a Kd [5] of 2720 nM and a Kd [6] of 288 nM. For the same binder, the Kd [7] was 367 nM.
